# Results as given in US8377884B2, “Variants of C-type natriuretic peptides” (Biomarin Pharmaceutical Inc., priority 2007, dated 2013).
# Like-named read-outs stand apart in the source and are kept apart here. Numbered stars: 1 amine (or outer) side, 2 acyl side, 3 side chain; on linkers, the order of the positions; unused ones are H or OH. Bridge positions count the residues as written; N and C are the ends. Square brackets hold non-standard residues; d marks the D form. Ends that are not written are not given here. Peptide text beside a SMILES is read from it. * marks the point of attachment. PEG2K = polydispersed PEG of number-average molecular weight 2 kDa; PEG12 = NCCOCCOCCOCCOCCOCCOCCOCCOCCOCCOCCOCCOCCC(=O)O; Biotin = O=C1N[C@H]2[C@H](CS[C@H]2CCCCC(=O)*)N1; X1 = O=C(C(CN[*:1])c1ccccc1)[*:2]
# What was measured:
# NPR-B = biological target: T1, NPR-B (Mus musculus, UniProt Q6VVW5); assay: Stimulation of cGMP production in NIH3T3 cells; format: cell-based, Murine; conditions: for cGMP response relative to 1 uM CNP22 (%) at 0.01 µM: read-out: cGMP Response rel. to 1 uM CNP22, 10 nM; for cGMP response relative to 1 uM CNP22 (%) at 1 µM: read-out: cGMP Response rel. to 1 uM CNP22, 1 uM
# T1 construct: Murine NIH3T3 cells express endogenously the CNP signaling receptor, NPR-B; endogenous in cells; host or cells: NIH3T3 (murine fibroblasts)
# T1 sequence (Q6VVW5 17-1047): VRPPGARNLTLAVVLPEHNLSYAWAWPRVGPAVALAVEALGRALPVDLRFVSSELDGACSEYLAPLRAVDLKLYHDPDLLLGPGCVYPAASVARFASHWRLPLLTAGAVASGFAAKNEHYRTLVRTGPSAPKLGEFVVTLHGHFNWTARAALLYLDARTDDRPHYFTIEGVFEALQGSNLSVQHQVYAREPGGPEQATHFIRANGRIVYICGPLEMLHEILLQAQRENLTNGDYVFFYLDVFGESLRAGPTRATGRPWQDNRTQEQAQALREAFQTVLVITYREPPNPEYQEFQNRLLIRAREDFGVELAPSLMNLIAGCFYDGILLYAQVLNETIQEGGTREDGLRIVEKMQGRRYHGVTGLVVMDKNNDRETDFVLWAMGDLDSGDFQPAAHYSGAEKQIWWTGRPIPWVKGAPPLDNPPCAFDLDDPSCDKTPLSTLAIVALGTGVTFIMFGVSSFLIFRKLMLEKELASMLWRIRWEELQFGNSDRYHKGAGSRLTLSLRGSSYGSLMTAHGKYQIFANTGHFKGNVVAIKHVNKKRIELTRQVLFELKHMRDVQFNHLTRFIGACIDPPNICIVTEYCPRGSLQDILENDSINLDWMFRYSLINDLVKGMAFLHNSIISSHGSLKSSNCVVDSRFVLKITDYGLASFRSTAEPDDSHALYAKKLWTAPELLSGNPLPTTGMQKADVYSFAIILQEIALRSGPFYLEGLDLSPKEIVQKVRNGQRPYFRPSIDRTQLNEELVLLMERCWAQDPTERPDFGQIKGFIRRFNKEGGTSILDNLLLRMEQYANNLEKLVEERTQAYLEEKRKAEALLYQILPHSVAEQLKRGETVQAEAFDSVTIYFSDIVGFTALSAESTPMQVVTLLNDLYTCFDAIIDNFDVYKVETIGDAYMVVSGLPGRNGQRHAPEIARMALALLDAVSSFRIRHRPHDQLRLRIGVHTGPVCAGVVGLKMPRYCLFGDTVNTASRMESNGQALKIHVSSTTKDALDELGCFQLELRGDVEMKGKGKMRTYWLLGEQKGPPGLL
# Recombinant human NEP = Recombinant human NEP (Homo sapiens, UniProt P08473); assay: in vitro; conditions: for NEP Cleavage (t1/2, min): pH 7
# Recombinant human NEP, sequence (P08473 whole entry): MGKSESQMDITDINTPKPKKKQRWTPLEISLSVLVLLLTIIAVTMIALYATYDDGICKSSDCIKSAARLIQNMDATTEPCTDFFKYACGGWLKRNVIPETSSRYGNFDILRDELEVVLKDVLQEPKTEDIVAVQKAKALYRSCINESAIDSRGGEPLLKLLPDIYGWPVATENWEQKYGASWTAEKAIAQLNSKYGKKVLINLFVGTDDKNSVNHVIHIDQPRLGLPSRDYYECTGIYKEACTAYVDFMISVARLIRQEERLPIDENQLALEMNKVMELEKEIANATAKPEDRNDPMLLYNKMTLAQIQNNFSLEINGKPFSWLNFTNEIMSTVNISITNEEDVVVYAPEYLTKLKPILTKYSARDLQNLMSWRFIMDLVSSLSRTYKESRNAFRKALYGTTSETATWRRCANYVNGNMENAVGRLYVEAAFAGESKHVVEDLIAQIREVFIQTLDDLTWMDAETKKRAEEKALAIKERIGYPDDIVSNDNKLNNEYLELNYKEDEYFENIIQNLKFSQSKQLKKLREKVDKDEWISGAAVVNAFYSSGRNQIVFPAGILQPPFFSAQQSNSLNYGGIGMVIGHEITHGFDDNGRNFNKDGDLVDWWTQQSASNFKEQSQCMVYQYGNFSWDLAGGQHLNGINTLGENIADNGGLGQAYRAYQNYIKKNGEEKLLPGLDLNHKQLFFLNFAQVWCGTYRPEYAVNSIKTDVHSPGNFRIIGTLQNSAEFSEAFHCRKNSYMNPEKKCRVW
# Method in brief: (§1)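 Recombinant human NEP (1 ug/mL final) incubated with 100 uM CNP variant in 0.1 M Tris, pH 7, at 37° C for various times, then quenched with EDTA (10 mM final) and heat. Samples reduced and analysed by HPLC and mass spectrometry. Half-life derived from loss of intact variant over time.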
# [1] = biological target: neutral endopeptidase (NEP) (Homo sapiens, UniProt P08473); assay: In vitro neutral endopeptidase (NEP) cleavage assay; conditions: human, pH 7
# neutral endopeptidase (NEP), sequence (P08473 whole entry): as above
# Method in brief: as §1
# [2] = NIH3T3 cells, 10 nM natriuretic peptide, normalized to cell number and cGMP production with 1 uM wtCNP22
# [3] = NIH3T3 cells, 1 uM natriuretic peptide, normalized to cell number and cGMP production with 1 uM wtCNP22
compound,measurement,setting,value
CC[C@H](C)[C@@H]1NC(=O)[C@H](CCCNC(=N)N)NC(=O)[C@H](CC(=O)O)NC(=O)[C@H](CC(C)C)NC(=O)[C@H](CCCCN)NC(=O)[C@H](CC(C)C)NC(=O)CNC(=O)[C@H](Cc2ccccc2)NC(=O)[C@@H](NC(=O)CNC(=O)[C@H](CCCCN)NC(=O)[C@H](CO)NC(=O)[C@H](CC(C)C)NC(=O)CNC(=O)[C@H](CCC(N)=O)NC(=O)[C@H](CO)NC(=O)[C@H](CC(C)C)NC(=O)[C@H](CCCNC(=N)N)NC(=O)[C@H](C)NC(=O)[C@@H](NC(=O)[C@H](C)NC(=O)[C@H](Cc2c[nH]c3ccccc23)NC(=O)[C@H](C)NC(=O)[C@H](CCCCN)NC(=O)[C@H](Cc2ccccc2)NC(=O)[C@H](C)NC(=O)[C@H](CCCNC(=N)N)NC(=O)[C@H](CCC(=O)O)NC(=O)CN)C(C)C)CSSC[C@@H](C(=O)O)NC(=O)CNC(=O)[C@H](CC(C)C)NC(=O)CNC(=O)[C@H](CO)NC(=O)[C@H](CCSC)NC(=O)[C@H](CO)NC(=O)CNC1=O [CE] (H-GERAFKAWAVARLSQGLSKGCFGLKLDRIGSMSGLGC-OH; disulfide 21-37 (inferred); N-terminus and C-terminus assumed),cGMP response relative to 1 uM CNP22 (%) at 0.01 µM,NPR-B; [2],15%
same,cGMP response relative to 1 uM CNP22 (%) at 1 µM,NPR-B; [3],87%
same,resistance to NEP cleavage/degradation (in words),Recombinant human NEP,much more resistant to NEP cleavage than CNP22
PEG1K-CNP22: CNP22 conjugated at the N-terminus to polydispersed PEG1K,"cGMP Response rel. to 1 uM CNP22, 10 nM",NPR-B; [2],15 ± 3
same,"cGMP Response rel. to 1 uM CNP22, 1 uM",NPR-B; [3],68 ± 17
same,"NEP Cleavage (t1/2, min)",Recombinant human NEP,>>160 min
CC[C@H](C)[C@@H]1NC(=O)[C@H](CCCNC(=N)N)NC(=O)[C@H](CC(=O)O)NC(=O)[C@H](CC(C)C)NC(=O)[C@H](CCCCN)NC(=O)[C@H](CC(C)C)NC(=O)CNC(=O)[C@H](Cc2ccccc2)NC(=O)[C@@H](NC(=O)CNC(=O)[C@H](CCCCN)NC(=O)[C@H](CO)NC(=O)[C@H](CC(C)C)NC(=O)CNC(=O)[C@H](CCCCN)NC(=O)[C@H](CCCCN)NC(=O)[C@H](CC(N)=O)NC(=O)[C@H](C)NC(=O)CNC(=O)[C@H](CCCCN)NC(=O)[C@H](Cc2ccc(O)cc2)NC(=O)[C@H](CCCCN)NC(=O)[C@H](CCCNC(=N)N)NC(=O)[C@H](C)NC(=O)[C@H](CC(N)=O)NC(=O)[C@@H]2CCCN2C(=O)[C@H](Cc2c[nH]cn2)NC(=O)[C@H](CCC(=O)O)NC(=O)[C@@H](N)CCC(N)=O)CSSC[C@@H](C(=O)O)NC(=O)CNC(=O)[C@H](CC(C)C)NC(=O)CNC(=O)[C@H](CO)NC(=O)[C@H](CCSC)NC(=O)[C@H](CO)NC(=O)CNC1=O [Analog BL],resistance to NEP cleavage/degradation (in words),Recombinant human NEP,resistant to NEP degradation
PEG2K-CNP22: CNP22 conjugated at the N-terminus to polydispersed PEG2K,"cGMP Response rel. to 1 uM CNP22, 10 nM",NPR-B; [2],6 ± 2
same,"cGMP Response rel. to 1 uM CNP22, 1 uM",NPR-B; [3],32 ± 4
same,"NEP Cleavage (t1/2, min)",Recombinant human NEP,>>160 min
CC[C@H](C)[C@@H]1NC(=O)[C@H](CCCNC(=N)N)NC(=O)[C@H](CC(=O)O)NC(=O)[C@H](CC(C)C)NC(=O)[C@H](CCCCN)NC(=O)[C@H](CC(C)C)NC(=O)CNC(=O)C(c2ccccc2)CNC(=O)[C@@H](NC(=O)CNC(=O)[C@H](CCCCN)NC(=O)[C@H](CO)NC(=O)[C@H](CC(C)C)NC(=O)CN)CSSC[C@@H](C(=O)O)NC(=O)CNC(=O)[C@H](CC(C)C)NC(=O)CNC(=O)[C@H](CO)NC(=O)[C@H](CCSC)NC(=O)[C@H](CO)NC(=O)CNC1=O (stereo partly shown) [H] (H-GLSKGC[X1]GLKLDRIGSMSGLGC-OH; disulfide 6-22; N-terminus and C-terminus assumed),resistance to cleavage at the Cys6-Phe7 bond relative to wtCNP22,Recombinant human NEP,resistance or improved resistance
DLRVDTKSRAAWARLLQEHPNARKYKGANKKGLSKGCFGLKLDRIGSMSGLGC (disulfide 37-53 (inferred)) [Analog BM],resistance to NEP cleavage/degradation (in words),Recombinant human NEP,resistant to NEP degradation
PEG5K-CNP22: CNP22 conjugated at the N-terminus to polydispersed PEG5K,"cGMP Response rel. to 1 uM CNP22, 10 nM",NPR-B; [2],8 ± 1
same,"cGMP Response rel. to 1 uM CNP22, 1 uM",NPR-B; [3],20 ± 7
same,resistance to NEP cleavage/degradation (in words),Recombinant human NEP,resistant to NEP degradation over the assay period of 160 minutes
same,"NEP Cleavage (t1/2, min)",Recombinant human NEP,>>160 min
CC[C@H](C)[C@@H]1NC(=O)[C@H](CCCNC(=N)N)NC(=O)[C@H](CC(=O)O)NC(=O)[C@H](CC(C)C)NC(=O)[C@H](CCCCN)NC(=O)[C@H](CC(C)C)NC(=O)CNC(=O)[C@H](Cc2ccccc2)NC[C@@H](NC(=O)CNC(=O)[C@H](CCCCN)NC(=O)[C@H](CO)NC(=O)[C@H](CC(C)C)NC(=O)CN)CSSC[C@@H](C(=O)O)NC(=O)CNC(=O)[C@H](CC(C)C)NC(=O)CNC(=O)[C@H](CO)NC(=O)[C@H](CCSC)NC(=O)[C@H](CO)NC(=O)CNC1=O [A],resistance to cleavage at the Cys6-Phe7 bond relative to wtCNP22,Recombinant human NEP; data not shown,resistance or improved resistance
CC[C@H](C)[C@@H]1NC(=O)[C@H](CCCNC(=N)N)NC(=O)[C@H](CC(=O)O)NC(=O)[C@H](CC(C)C)NC(=O)[C@H](CCCCN)NC(=O)[C@H](CC(C)C)NC(=O)CNC(=O)[C@H](Cc2ccccc2)NC(=O)[C@@H](NC(=O)CNC(=O)[C@H](CCCNC(=N)N)NC(=O)[C@H](CO)NC(=O)[C@H](CC(C)C)NC(=O)CNC(=O)[C@H](CCCNC(=N)N)NC(=O)[C@H](CCCNC(=N)N)NC(=O)[C@H](CC(N)=O)NC(=O)[C@H](C)NC(=O)CN)CSSC[C@@H](C(=O)O)NC(=O)CNC(=O)[C@H](CC(C)C)NC(=O)CNC(=O)[C@H](CO)NC(=O)[C@H](CCSC)NC(=O)[C@H](CO)NC(=O)CNC1=O [Analog AY] (H-GANRRGLSRGCFGLKLDRIGSMSGLGC-OH; disulfide 11-27 (inferred); N-terminus and C-terminus assumed),resistance to NEP cleavage/degradation (in words),Recombinant human NEP,same lability to NEP hydrolysis as CNP22
"CC[C@H](C)[C@@H]1NC(=O)[C@H](CCCNC(=N)N)NC(=O)[C@H](CC(=O)O)NC(=O)[C@H](CC(C)C)NC(=O)[C@H](CCCCN)NC(=O)[C@H](CC(C)C)NC(=O)CNC(=O)[C@H](Cc2ccccc2)NC(=O)[C@@H](NC(=O)CNC(=O)CNC(=O)[C@H](CO)NC(=O)[C@H](CC(C)C)NC(=O)CNC(=O)CCOCCOCCOCCOCCOCCOCCOCCOCCOCCOCCOCCOCCNC(=O)CCCC[C@@H]2SC[C@@H]3NC(=O)N[C@@H]32)CSSC[C@@H](C(=O)O)NC(=O)CNC(=O)[C@H](CC(C)C)NC(=O)CNC(=O)[C@H](CO)NC(=O)[C@H](CCSC)NC(=O)[C@H](CO)NC(=O)CNC1=O [(PEO12)-Biotin-CNP22, K4G] ({Biotin-PEG12}-GLSGGCFGLKLDRIGSMSGLGC-OH; disulfide 6-22; C-terminus assumed)",cGMP response relative to 1 uM CNP22 (%) at 0.01 µM,"NPR-B; NIH3T3, […]",10%
same,cGMP response relative to 1 uM CNP22 (%) at 1 µM,"NPR-B; NIH3T3, […]",27%
same,half-life at 100 uM,[1],1.67 h
"PEG2K-CNP22(K4G): CNP22 having a K4G substitution, N-terminal PEGylated with PEG2K (PEG2K-GLSGGCFGLKLDRIGSMSGLGC; disulfide 6-22 (inferred); UniProt P23582 105-126, looked up, variant K4G)",resistance to NEP cleavage/degradation (in words),Recombinant human NEP,only slightly more resistant to NEP cleavage than CNP22
